Results published in article PMC3811051 (Nature methods, 2013).

Target: the molecule itself
Test: SEC

B1: LanYFP, yellow fluorescent protein from Branchiostoma lanceolatum (natural protein, UniProt B1PNC0 1-219, looked up)
chain: MSLPATHELHIFGSFNGVDFDMVGRGTGNPNDGYEELNLKSTKGALQFSPWILVPQIGYGFHQYLPFPDGMSPFQAAMKDGSGYQVHRTMQFEDGASLTSNYRYTYEGSHIKGEFQVIGTGFPADGPVMTNSLTAADWCVTKMLYPNDKTIISTFDWTYTTGSGKRYQSTVRTNYTFAKPMAANILKNQPMFVFRKTELKHSKTELNFKEWQKAFTDVM
stoichiometry N: 4
